Tests used:
[1] = melting temperature (DSF); higher = more thermostable
How it was run: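 After expression in E. coli C41(DE3), the candidate enzymes were bound to nickel beads and released with SUMO protease. Their melting temperature was found by differential scanning fluorimetry with Sypro Orange on a Bio-Rad CFX96. Each sealed PCR plate well held 45 μL enzyme (0 to 0.3 mg/mL) plus 5 μL 5X dye, and fluorescence was read for 250 cycles from 25 °C at 0.3 °C per cycle (ramp 0.3 °C/s).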

[2] = purified protein yield per well (BCA); higher = higher soluble expression
How it was run: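 Each candidate enzyme was grown in E. coli C41(DE3) in a 2 mL autoinduction culture (100 µg/mL kanamycin; 2 h at 37 °C, then 40 h at 18 °C) and purified robotically via Ni-charged magnetic beads with SUMO protease cleavage. Purified protein yield per well was assessed using the Pierce Rapid Gold BCA kit. Readings below 25 ug (0.1 mg/mL) are beneath the detection threshold.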

[3] = PET hydrolysis, aromatic products released after 48 h (umol product/mg enzyme); higher = more PET depolymerization activity
How it was run: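 Sealed plates containing 3.5 mg PET (amorphous film or crystalline powder), 450 μL buffer and 5 μg (50 μL) tagless candidate enzyme were held 48 h at 40 or 60 °C with no shaking. Supernatants were then read at 260 and 280 nm against buffer blanks. The aromatic product detected this way, per mg enzyme, defines PET hydrolysis activity.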

[4] = substrate: cryPow, 40 °C, pH 4.5
[5] = substrate: cryPow, 40 °C, pH 5.5
[6] = substrate: cryPow, 40 °C, pH 6.5
[7] = substrate: cryPow, 40 °C, pH 7.5
[8] = substrate: cryPow, 60 °C, pH 4.5
[9] = substrate: cryPow, 60 °C, pH 5.5
[10] = substrate: cryPow, 60 °C, pH 6.5
[11] = substrate: cryPow, 60 °C, pH 7.5

Row | Sequence | melting temperature [1] [C] | purified protein yield per well [2] [µg] | PET hydrolysis [3, 4] | PET hydrolysis [3, 5] | PET hydrolysis [3, 6] | PET hydrolysis [3, 7] | PET hydrolysis [3, 8] | PET hydrolysis [3, 9] | PET hydrolysis [3, 10] | PET hydrolysis [3, 11] | PET hydrolysis ([3]; substrate: aFilm, 40 °C, pH 5.5) | PET hydrolysis ([3]; substrate: aFilm, 40 °C, pH 6.5) | PET hydrolysis ([3]; substrate: aFilm, 40 °C, pH 7.5) | PET hydrolysis ([3]; substrate: aFilm, 40 °C, pH 8.5) | PET hydrolysis ([3]; substrate: aFilm, 60 °C, pH 5.5) | PET hydrolysis ([3]; substrate: aFilm, 60 °C, pH 6.5) | PET hydrolysis ([3]; substrate: aFilm, 60 °C, pH 7.5) | PET hydrolysis ([3]; substrate: aFilm, 60 °C, pH 8.5) | PET hydrolysis ([3]; substrate: cryPow, 40 °C, pH 8.5) | PET hydrolysis ([3]; substrate: cryPow, 60 °C, pH 8.5)
1 | SPSPGTPGGDNPYQRGPDPTVASVAAQYGPFATAQITVPPGNGFNGGFIYYPTDTSHTYGAVAIVPGYTALFADEEAWMGPRLASFGFVVIGVETNSRTDYDTARGTQLLAALDYLTNSSAVRDRVDRNRLSVIGHSMGGGGSLYAATQRPSLKAAIGLAPFKPSGNLASDTVPTMIIGGINDTTVTPSYLDGLYPTLPAATPGAYLQLANADHLYFTRPNDIELRSQIEWLKIFVDNDTRYTPFLCPSVKDTTGIVRSSVKCSTVPGGGSTPSSSRILGTQSGRCVDVPGATHNNGTRVQLYDCNGQANQQWTYTSSKQLTVYGTVCLDAAGSGNGSAVQIYSCNGQANQQWNVNANGTITGVQSGRCLDVWGTGNGQQIQIYDCNGQANQKFSLN [ESM136] | 55.6 | 61.4 | 5 | 18 | 13 | < 3 | < 3 | < 3 | < 3 | < 3 | – | – | – | – | – | – | – | – | – | –
2 | SSCDIMGDVNEDSEVDIVDALLIAQAYVGLNPTIEYHPCADVNCSGSVDIVDALLIAQKYVGLISEFSCQNTPEPTIEPTSAPVLNIACGSSSALGIFQEDQYYSGGSTHNNSNTIDVSRITVNTPPTGLFNNERYGEMSYTIPDLSAGDTYTVTLYFAETYLTSPGSRLFNVSINSTEVLTNFDIYAAAGGQNNGISQSFITTANTSGRIVIDFTAVTENPKINGISIVTGIGPTNIPTPEPTPTPENSGFQRGPDPSLESISANRGTFATAELTFPAGNGFGGGFIYYPTDTSLGTWAAVAICPGGSAKFANEETWMGHWLASFGFVVIGMETNNTYDYPESRGTQLLAALDYLTQKSAVKDRVDPDRLMVMGHSMGGGGAFHAAMARSSLKTMVALAPWFNSSLTSPSMTNLHMPAMIISARNDTVVTPASCSAIYDKIPTTTQRAWVELAADDHLGFTKSNPTEMRVLIPWMKIFLDNDERYVQFLCPIANSSNISVYKNSCPFVP [TEP039] | 50.8 | 34.3 | < 3 | < 3 | < 3 | < 3 | – | – | – | – | – | – | – | – | – | – | – | – | – | –
3 | STRNQEPTLQSIEAARGPYEIATQSVPPAVNTGFGGGTIYYPATTGAGKFGAVALSPGYMEKEYSFSWLGTRLASQGFVVFIINTQNSEEFPSARTDELLASLNYLTQTSEVRDRVDPNRLAVMGHSMGGGAALEAAEKNQSLRAVISMTPWNIKTTYSDIKTPTLIIGAQYDNIAPVHDHAQPSYASLPNDLAKSYLELRNGNHFSPNMENTAIARSSTVWLKRFVDGDTRYNKFICPGPTVGDEFNIVQSNCPIL [DP079] | 60.4 | 281 | – | < 3 | < 3 | < 3 | – | < 3 | < 3 | < 3 | < 3 | < 3 | < 3 | < 3 | < 3 | < 3 | < 3 | < 3 | < 3 | < 3
4 | TDNPHQRGPNPSQASISANRGTFATAETSVGSGNGFGAAKIYYPTDTGQGTFGAIAVSPGYTATWAAEGAWMGHWLASFGFVVIGIDTINRNDFDVARGTQLLAALDYLTQRSSVRTRVDPSRLAVMGHSMGGGGTISAALRRPTLKAAIGLAPYSPSQTTTGMQVPTVLLAGQNDGTSTPASIITLHNNIPASTEKAYLELTGAGHGFPTSNNSVVTRKVIPWMKIFIDQDTRYTQFLCPLQDWTGIRSYRNSCPLLPNDPGTTFSLAGSASGKCVDVPGRVQTNGTGLIIWTCNGAANQHWTRTAAGELRIYGNSKCMDASGQGARVTINSCNGGSGQKWTVGTNGTVTNAASAGCLDTGGTADNAPVIVTTCNGGSGQIWIKRS [ESM184] | 43 | 34 | < 3 | < 3 | < 3 | < 3 | – | – | – | – | – | – | – | – | – | – | – | – | – | –
5 | VEIGPNPTSTLLNGNGPFSVSSSSVSSWVSGFGGGTIYYPTASGQYGVIAVCPGYTGTSSSISWFARRLATHGFVTIAMNTNSRFDFPDSRATQLAAALNYLLNSSSSTIRSRIRTADRGVAGHSMGGGGTLRASERDSNLKVGIPLTPWHTDKTWGSLSVPQMIFGADGDTVAPASSHARTFYNSIPSSTKKAYALLNNASHFTPNSTDERIGRYGVAFAKRFVDGDTRYEPFLCGAEHSTYATSWKFDTYLSTCPYGGGSEPEPDYPWWYWWR [ESM162] | 69.7 | 31.8 | < 3 | < 3 | < 3 | < 3 | – | – | – | – | – | – | – | – | – | – | – | – | – | –
6 | VQIGPAPTKASLEASRGPFTVATTRLSANGHGGGTIYYPTNAGAKVGVIAIVPGYLSYQSSIEWWGPRLASHGFAVVTIDTLTIYDQPSSRSSQQLRALDQVVALGSKSTSPLYNKVDGSRTGVMGWSMGGGGSLISAQNRPSIKAAAPQAPWNTTSNFSSLTVPTLIFACQADVVAPILSHAVPFYNSMSRNPKQYLERTAGDHFCFNNANPTVGLKGVAWMKRFIDGDTRYTSFACSNPNALGFSSFRTERCS [ESM053] | 62.8 | 103 | < 3 | 6 | 10 | 32 | < 3 | < 3 | 6 | 10 | – | – | – | – | – | – | – | – | – | –
7 | VQIGPNPTKSSLEASRGPFSTSQFTVSRPSGYGAGTVYYPTNAGAKVGAIAIVPGFLSYQSSINWWGPRLASHGFVVITIDTYTTGDQPDSRSRQQLAALDQVIALGNTSSSPIYGKVDGSRTGVMGWSMGGGGSLISAKNRPSIKAAAPQAPWNTSTNFSSVTVPTLIFACQSDIVAPVISHAIPFYNSMTRNPKQYLEKTLGDHFCFNNANATVGLKGVAWMKRFVDGDTRYTSFACSNPNAFGFSDFRTARCS [ESM045] | 63.4 | 30.4 | 5 | 12 | 22 | 35 | – | – | – | – | – | – | – | – | – | – | – | – | – | –
